Source: paper PMC12292525, “Identification, Cloning, and Functional Characterization of Carotenoid Cleavage Dioxygenase (CCD) from Olea europaea and Ipomoea nil” (Biology, 2025)

System: CC1=C(/C=C/C(C)=C/C=C/C(C)=C/C=C/C=C(C)/C=C/C=C(\C)C=O)C(C)(C)CCC1
Assay: beta-ionone formation, Michaelis-Menten nonlinear fit
Format: biochemical, Olea europaea
Settings: optimal reaction conditions (pH 9.5 Gly-NaOH, 45 °C reported as optimum), O2 co-substrate
Source text: beta-ionone formation, Michaelis-Menten nonlinear fit on OeCCD1

Substance: OeCCD1 (Olea europaea var. sylvestris)
- Km: 820 µM
- Vmax: 2.3 µmol/min/mg
- kcat: 3.35 s⁻¹
- kcat/Km: 4090 M⁻¹ s⁻¹
